Measurements as given in publication PMC10397247.
Read-outs that look alike come from different tables or passages of the source.

Key:
4H2931-AA = biological target: T1, 4H2931-AA; test: two-hybrid library CCmax;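 also: natural log of median RNA to DNA barcode read ratio; higher means stronger binding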
T1 chain: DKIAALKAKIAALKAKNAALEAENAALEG

4H3001-AA = biological target: T2, 4H3001-AA; test: two-hybrid library CCmax; conditions: mean of both orientations;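 also: natural log of median RNA to DNA barcode read ratio; higher means stronger binding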
T2 chain: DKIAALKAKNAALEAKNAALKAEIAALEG

4H3015-AA = biological target: T3, 4H3015-AA; test: two-hybrid library CCmax; conditions: mean of both orientations;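 also: natural log of median RNA to DNA barcode read ratio; higher means stronger binding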
T3 chain: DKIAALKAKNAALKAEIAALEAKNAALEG

4H3073-AA = biological target: T4, 4H3073-AA; test: two-hybrid library CCmax;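 also: natural log of median RNA to DNA barcode read ratio; higher means stronger binding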
T4 chain: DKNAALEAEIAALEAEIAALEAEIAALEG

4H3438-AA = biological target: T5, 4H3438-AA; test: two-hybrid library CCmax; conditions: mean of both orientations;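 also: natural log of median RNA to DNA barcode read ratio; higher means stronger binding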
T5 chain: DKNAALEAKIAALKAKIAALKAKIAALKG

4H347-AA = biological target: T6, 4H347-AA; test: two-hybrid library CCmax; conditions: mean of both orientations;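 also: natural log of median RNA to DNA barcode read ratio; higher means stronger binding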
T6 chain: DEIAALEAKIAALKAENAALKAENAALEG

4H406-AA = biological target: T7, 4H406-AA; test: two-hybrid library CCmax; conditions: mean of both orientations
T7 chain: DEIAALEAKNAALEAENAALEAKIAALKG

4H452-AA = biological target: T8, 4H452-AA; test: two-hybrid library CCmax; conditions: mean of both orientations
T8 chain: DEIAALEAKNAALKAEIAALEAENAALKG

4H56-AA = biological target: T9, 4H56-AA; test: two-hybrid library CCmax; conditions: mean of both orientations
T9 chain: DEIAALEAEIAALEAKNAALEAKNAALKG

4H_APH = biological target: T10, 4H_APH; test: two-hybrid library CCmax; conditions: mean of both orientations
T10 chain: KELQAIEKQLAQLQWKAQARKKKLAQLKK

4H_BCR = biological target: T11, 4H_BCR; test: two-hybrid library CCmax; conditions: mean of both orientations
T11 chain: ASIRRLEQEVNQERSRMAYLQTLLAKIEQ

4H_GCN4 = test: two-hybrid library CCmax
Sequence of 4H_GCN4 (chain, as listed by the source): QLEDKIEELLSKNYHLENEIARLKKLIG

GCN2_T = test: two-hybrid library CCmax
4H3381-bN = biological target: T12, 4H3381-bN; test: two-hybrid library CCNG1
T12 chain: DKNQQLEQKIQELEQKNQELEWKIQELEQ

4H349-bN = biological target: T13, 4H349-bN; test: two-hybrid library CCNG1
T13 chain: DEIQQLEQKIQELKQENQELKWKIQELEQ

4H56-bN = biological target: T14, 4H56-bN; test: two-hybrid library CCNG1
T14 chain: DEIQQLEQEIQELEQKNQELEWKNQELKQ

4H730-bN = biological target: T15, 4H730-bN; test: two-hybrid library CCNG1
T15 chain: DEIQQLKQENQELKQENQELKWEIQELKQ

4H796-bN = biological target: T16, 4H796-bN; test: two-hybrid library CCNG1
T16 chain: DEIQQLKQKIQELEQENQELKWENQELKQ

4H932-bN = biological target: T17, 4H932-bN; test: two-hybrid library CCNG1
T17 chain: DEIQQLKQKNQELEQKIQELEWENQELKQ

4H949-bN = biological target: T18, 4H949-bN; test: two-hybrid library CCNG1
T18 chain: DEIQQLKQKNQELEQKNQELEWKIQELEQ

4H348-bA = biological target: T19, 4H348-bA; test: two-hybrid library CCNG1
T19 chain: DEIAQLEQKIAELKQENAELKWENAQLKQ

4H40-bA = biological target: T20, 4H40-bA; test: two-hybrid library CCNG1
T20 chain: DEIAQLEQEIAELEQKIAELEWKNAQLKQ

4H477-bA = biological target: T21, 4H477-bA; test: two-hybrid library CCNG1
T21 chain: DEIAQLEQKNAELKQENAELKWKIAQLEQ

4H492-bA = biological target: T22, 4H492-bA; test: two-hybrid library CCNG1
T22 chain: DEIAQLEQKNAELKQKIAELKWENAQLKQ

4H741-bA = biological target: T23, 4H741-bA; test: two-hybrid library CCNG1
T23 chain: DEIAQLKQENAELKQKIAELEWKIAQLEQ

4H949-bA = biological target: T24, 4H949-bA; test: two-hybrid library CCNG1
T24 chain: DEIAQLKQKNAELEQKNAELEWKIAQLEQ

4H40-bN = biological target: T25, 4H40-bN; test: two-hybrid library CCNG1
T25 chain: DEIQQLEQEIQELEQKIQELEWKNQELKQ

4H477-bN = biological target: T26, 4H477-bN; test: two-hybrid library CCNG1
T26 chain: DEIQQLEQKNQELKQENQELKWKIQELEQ

4H492-bN = biological target: T27, 4H492-bN; test: two-hybrid library CCNG1
T27 chain: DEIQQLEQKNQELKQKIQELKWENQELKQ

4H741-bN = biological target: T28, 4H741-bN; test: two-hybrid library CCNG1
T28 chain: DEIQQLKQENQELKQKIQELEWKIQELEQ

4H3664-AA = biological target: T29, 4H3664-AA; test: two-hybrid library CCmax
T29 chain: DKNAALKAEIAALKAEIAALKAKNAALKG

4H369-AA = biological target: T30, 4H369-AA; test: two-hybrid library CCmax; conditions: mean of both orientations
T30 chain: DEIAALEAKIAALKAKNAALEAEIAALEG

4H3922-AA = biological target: T31, 4H3922-AA; test: two-hybrid library CCmax; conditions: mean of both orientations
T31 chain: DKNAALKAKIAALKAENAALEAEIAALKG

4H4033-AA = biological target: T32, 4H4033-AA; test: two-hybrid library CCmax; conditions: mean of both orientations
T32 chain: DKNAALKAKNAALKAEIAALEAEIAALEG

4H481-AA = biological target: T33, 4H481-AA; test: two-hybrid library CCmax; conditions: mean of both orientations
T33 chain: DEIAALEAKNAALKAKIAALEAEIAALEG

4H55-AA = biological target: T34, 4H55-AA; test: two-hybrid library CCmax; conditions: mean of both orientations
T34 chain: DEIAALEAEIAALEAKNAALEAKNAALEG

4H662-AA = biological target: T35, 4H662-AA; test: two-hybrid library CCmax; conditions: mean of both orientations
T35 chain: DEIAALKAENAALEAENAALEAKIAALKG

4H4038-AA = biological target: T36, 4H4038-AA; test: two-hybrid library CCmax
T36 chain: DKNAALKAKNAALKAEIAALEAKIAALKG

4H43-AA = biological target: T37, 4H43-AA; test: two-hybrid library CCmax; conditions: mean of both orientations
T37 chain: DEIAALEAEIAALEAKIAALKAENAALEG

4H451-AA = biological target: T38, 4H451-AA; test: two-hybrid library CCmax; conditions: mean of both orientations
T38 chain: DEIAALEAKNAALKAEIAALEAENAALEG

4H510-AA = biological target: T39, 4H510-AA; test: two-hybrid library CCmax; conditions: mean of both orientations
T39 chain: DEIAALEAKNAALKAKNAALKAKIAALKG

O11-AA = biological target: T40, O11-AA; test: two-hybrid library CCmax; conditions: mean of both orientations
T40 chain: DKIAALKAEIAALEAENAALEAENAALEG

O13-AA = biological target: T41, O13-AA; test: two-hybrid library CCmax; conditions: mean of both orientations
T41 chain: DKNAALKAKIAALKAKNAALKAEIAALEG

O14-AA = biological target: T42, O14-AA; test: two-hybrid library CCmax; conditions: mean of both orientations
T42 chain: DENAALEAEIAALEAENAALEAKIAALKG

DKIAALKAKIAALKAKNAALEAENAALEG [4H2931-AA]
interaction score (4H2931-AA): -1.66
interaction score (4H3001-AA): -1.79
interaction score (4H3015-AA): -2.54
interaction score (4H3073-AA): 0.803
interaction score (4H3438-AA): -1.54
interaction score (4H347-AA): -1.41
interaction score (4H406-AA): -0.98
interaction score (4H452-AA): -1.98
interaction score (4H56-AA): 1.81
interaction score (4H_APH): -1.87
interaction score (4H_BCR): -1.73
interaction score (4H_GCN4; mean of both orientations): -2.51
interaction score (GCN2_T): -2.11

DKNQQLEQKIQELEQKNQELEWKIQELEQ [4H3381-bN]
interaction score (4H3381-bN): 0.302
interaction score (4H349-bN): -0.946
interaction score (4H56-bN): -1.09
interaction score (4H730-bN): -1.25
interaction score (4H796-bN): -1.3
interaction score (4H932-bN): -0.998
interaction score (4H949-bN): -1.1

DEIAQLEQKIAELKQENAELKWENAQLKQ [4H348-bA]
interaction score (4H348-bA): 0.473
interaction score (4H40-bA): -0.298
interaction score (4H477-bA): -1.23
interaction score (4H492-bA): -0.0783
interaction score (4H741-bA): -0.761

DEIAQLEQEIAELEQKIAELEWKNAQLKQ [4H40-bA]
interaction score (4H40-bA): 1.76
interaction score (4H477-bA): -1.02
interaction score (4H492-bA): 1.72
interaction score (4H741-bA): -0.423
interaction score (4H949-bA): -1.8

DEIQQLEQEIQELEQKIQELEWKNQELKQ [4H40-bN]
interaction score (4H40-bN): 0.212
interaction score (4H477-bN): 0.0764
interaction score (4H492-bN): -0.862
interaction score (4H741-bN): -0.956

DKNAALKAEIAALKAEIAALKAKNAALKG [4H3664-AA]
interaction score (4H3664-AA): 0.563
interaction score (4H369-AA): -1.44
interaction score (4H3922-AA): -1.57
interaction score (4H4033-AA): -1.55
interaction score (4H481-AA): -1.04
interaction score (4H55-AA): -1.04
interaction score (4H662-AA): -1.5

DKNAALKAKNAALKAEIAALEAKIAALKG [4H4038-AA]
interaction score (4H4038-AA): -0.654
interaction score (4H43-AA): 0.922
interaction score (4H451-AA): -1.08
interaction score (4H510-AA): -1.16
interaction score (4H_APH): -2.34
interaction score (4H_BCR): -1.53
interaction score (4H_GCN4): -1.46
interaction score (GCN2_T): -1.9
interaction score (O11-AA): -1.13
interaction score (O13-AA): -2.19
interaction score (O14-AA): 1.56
